Changes are numbered by the printed parent chain. Each block holds one binder with its values, some of them ahead of it.
Experiments:
[1] = biological target: T1, human CD40 expressed on cells (human, UniProt P25942 21-277); experiment: cell-based or functional assay
[2] = biological target: T1, human CD40 expressed on cells; experiment: flow cytometry on 293FT cells expressing human CD40
Description: (§1) Cells expressing Rhesus monkey CD40 and human CD40, respectively, were obtained after 48 h of expression.
(§2) GraphPad Prism 6.0 was used to fit the curves and calculate EC50.

[3] = biological target: T2, human OX40 (Acrobiosystems, OX 0-H5224) (human, UniProt P43489 29-216); experiment: direct ELISA, coated human OX40 1 µg/ml, anti-human Fc-HRP
T2 construct: Bought protein
T2 sequence (looked up): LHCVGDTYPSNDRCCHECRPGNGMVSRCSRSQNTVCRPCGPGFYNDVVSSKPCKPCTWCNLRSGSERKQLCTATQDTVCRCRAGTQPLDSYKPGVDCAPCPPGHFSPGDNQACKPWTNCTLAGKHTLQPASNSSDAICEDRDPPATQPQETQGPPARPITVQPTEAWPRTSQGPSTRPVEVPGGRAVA
Description: (§3) PBS solutions containing 1 μg/ml of human OX40 (Acrobiosystems, OX 0-H5224), 4-1BB (Acrobiosystems, 41B-H5227), GITR (Acrobiosystems, GIR-H5228) and CD40 (Acrobiosystems, CD 0-H5228) were coated on the ELISA plates and incubated overnight at 4° C. […] After 30 mins of incubation at room temperature, washing was carried out for 8 times with 0.05% PBS-Tween.

[4] = biological target: T3, human CD40 recombinant protein (Acrobiosystems, CD 0-H5228) (human, UniProt P25942 21-193); experiment: SPR (Biacore T200), antibody captured on Protein A chip, CD40 as analyte
T3 construct: Bought protein
Description: The antigen to be tested, i.e. human CD40 recombinant protein (Acrobiosystems, CD 0-H5228) was diluted gradiently with a Running buffer (HBS-EP+, GE) at concentrations of 2 μM, 1 μM, 500 nM, 250 nM, 125 nM, 62.5 nM, 31.25 nM. The above-mentioned CD40 with different concentrations was flowed through the chip on which the antibody was captured at a flow rate of 30 μL/min for 120 s of binding, and then the Running buffer was flowed through the chip at a flow rate of 30 μL/min for 240 s, with the antigen dissociating gradually from the chip on which the antibody was captured. Data processing was performed using BIAevaluation software S200, the necessary software of Biacore T200 instrument and binding constants (Ka), dissociation constants (Kd), and equilibrium dissociation constants (KD) were calculated.

[5] = biological target: T4, Rhesus monkey CD40 expressed on 293FT cells (Rhesus monkey (Macaca mulatta), UniProt F6SNI1 21-278); experiment: flow cytometry on 293FT cells expressing Rhesus CD40
T4 construct: whole, on cells; also called Rhesus CD40
Description: as §1, §2

[6] = biological target: T5, human 4-1BB (Acrobiosystems, 41B-H5227) (human, UniProt Q07011 24-186); experiment: direct ELISA, coated human 4-1BB 1 µg/ml, anti-human Fc-HRP
T5 construct: Bought protein
Description: as §3

[7] = biological target: T3, human CD40 recombinant protein …; experiment: direct ELISA, coated human CD40 1 µg/ml, anti-human Fc-HRP
Description: The antibodies were incubated at room temperature for 30 min, and washed 8 times with 0.05% PBS-Tween.

T3 sequence (P25942 21-193 limits assumed): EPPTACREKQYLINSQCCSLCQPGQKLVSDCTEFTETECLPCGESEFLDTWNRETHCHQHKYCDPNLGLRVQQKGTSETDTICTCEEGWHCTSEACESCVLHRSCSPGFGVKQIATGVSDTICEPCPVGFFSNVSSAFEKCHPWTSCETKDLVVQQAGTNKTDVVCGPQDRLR
T1 sequence (P25942 21-277): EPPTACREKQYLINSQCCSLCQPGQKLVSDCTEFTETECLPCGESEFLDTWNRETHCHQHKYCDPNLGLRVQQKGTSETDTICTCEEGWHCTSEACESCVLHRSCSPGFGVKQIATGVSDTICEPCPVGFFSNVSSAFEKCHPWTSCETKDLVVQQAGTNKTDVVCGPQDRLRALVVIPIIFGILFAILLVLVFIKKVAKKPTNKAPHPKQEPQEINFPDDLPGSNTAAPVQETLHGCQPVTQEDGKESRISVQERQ
T5 sequence (Q07011 24-186): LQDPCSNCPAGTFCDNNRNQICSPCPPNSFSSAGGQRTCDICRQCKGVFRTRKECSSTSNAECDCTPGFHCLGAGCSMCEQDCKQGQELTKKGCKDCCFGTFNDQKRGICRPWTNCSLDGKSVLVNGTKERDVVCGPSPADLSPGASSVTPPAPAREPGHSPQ

- EC50 of activation of the NF-kB-GFP+hCD40 reporter cell line, cross-linked with goat anti-human Fc [1]: 0.3 nM
- fold improvement of reporter cell activity against wild type NK003 [1]: ~10 times
B1: NK003-AM-18 (antibody, human IgG1, kappa, V domains shown)
VH: not shown
VL: DVVMTQSPLSLPVTPGESATISCRSSQSLLYSNGYNYLDWYLLKPGQSPQLLIYLGSNRASGVPDRFSGSGSGTDFTLKISRVEAEDVGLYYCMQQLEQPYTFGQGTKLEIKR

- EC50 [2]: 10 nM
- binding result [3]: no binding
- Kd [4]: 331 nM
- koff [4]: 0.0121 s⁻¹
- kon [4]: 36700 M⁻¹ s⁻¹
- EC50 [5]: 8 nM
- EC50 of activation of the NF-κB-GFP+hCD40 reporter cell line, cross-linked with goat anti-human Fc [1]: 2 nM
- EC50 of apoptosis of Raji cells (CD95 expression, MFI), cross-linked with goat anti-human Fc [1]: 2.6 nM
- EC50 of apoptosis of Ramos cells (CD95 expression, MFI), cross-linked with goat anti-human Fc [1]: 3 nM
- binding result [6]: no binding
B2: NK003 (antibody, human IgG1, kappa, V domains shown)
VH: not shown
VL: B1 VL with Q96G, Q99T
notes: also called antibody NK003; wild type NK003

- EC50 of activation of the NF-kB-GFP+hCD40 reporter cell line, cross-linked with goat anti-human Fc [1]: 0.25 nM
- fold improvement of reporter cell activity against wild type NK003 [1]: ~10 times
B3: NK003-AM-9 (antibody, human IgG1, kappa, V domains shown)
VH: not shown
VL: B1 VL with Q95N, Q96G, Q99V

- EC50 of activation of the NF-κB-GFP+hCD40 reporter cell line, cross-linked with goat anti-human Fc [1]: 0.35 nM
B4: NK003-AM-18-EP1 (antibody, human IgG1, kappa, V domains shown)
VH: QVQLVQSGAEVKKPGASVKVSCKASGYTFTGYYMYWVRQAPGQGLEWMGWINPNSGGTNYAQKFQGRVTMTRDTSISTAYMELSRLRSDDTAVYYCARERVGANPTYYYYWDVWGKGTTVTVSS
VL: B1 VL

- binding result [7]: no binding (tested: 500 nM)
B5: HEL (antibody, human IgG1, kappa, V domains shown)
VH: EVQLEQSGAELMKPGASVKISCKATGYTFTTYWIEWIKQRPGHSLEWIGEILPGSDSTYYNEKVKGKVTFTADASSNTAYMQLSSLTSEDSAVYYCARGDGFYVYWGQGTTLTVSS
VL: DIELTQSPATLSVTPGDSVSLSCRASQSISNNLHWYQQKSHESPRLLIKYTSQSMSGIPSRFSGSGSGTDFTLSINSVETEDFGVYFCQQSGSWPRTFGGGTKLDIKR
notes: IgG1 negative control antibody; also called negative control HEL; HEL control antibody

- EC50 (read off the curve) [7]: ~0.7 nM
- Kd [4]: 440 nM
- koff [4]: 0.039 s⁻¹
- kon [4]: 88700 M⁻¹ s⁻¹
- EC50 of activation of the NF-κB-GFP+hCD40 reporter cell line, with the addition of the secondary antibody [1]: 4 nM
B6: NK004 (antibody, human IgG1, kappa, V domains shown)
VH: QVQLVESGGGLVQPGRSLRISCAGSGFTFGDSAMHWVRQAPGKGLEWVSGISRNSDTIVYADSVKGRFTISRDNAKNSLYLQMNSLRAEDTALYYCARRSGDHHAMDVWGPGTTVTVSS
VL: ETTLTQSPATLSLSPGERATLSCRASQSVNTYLAWYQQKPGQAPRLLMYDSSSRATGIPDRFSGSGSGTDFTLTISRLEPEDFAVYYCQQYSTVPLTFGGGTKLEIKR
notes: also called antibody NK004

From patent US20220324988A1 (NANKAI UNIVERSITY, published 2022)
